Like-named read-outs stand apart in the source and are kept apart here.
What was measured:
IL-18 [1] = target: T1, IL-18 (Homo sapiens, UniProt Q14116); assay: Dissociation constant (Kd) used for dose selection, human; assay type: binding
T1 sequence (Q14116 37-193): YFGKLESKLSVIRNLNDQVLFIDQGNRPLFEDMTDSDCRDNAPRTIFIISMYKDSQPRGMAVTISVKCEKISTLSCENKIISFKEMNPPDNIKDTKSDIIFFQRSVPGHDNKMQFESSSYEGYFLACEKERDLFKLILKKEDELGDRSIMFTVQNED
Method: (§1) No validated animal model has been described for this condition. In the collagen-induced arthritis murine model the active dose for r-hIL-18BP administered intraperitoneally (i.p.) was determined to be 1 mg/Kg body weight. […] Altogether the expected pharmacologically active dose for a “humanized mice” treated by s.c. route with r-hIL-18BP is round 4.85 mg/kg. […] Although the guidance was initially written for extrapolating animal doses to healthy volunteers, its principles can be applied also to patients. […] Those doses will be likely also ineffective in AoSD patients considering that blood levels of IL-18 in AoSD are higher than those reported in the two above mentioned conditions.

IL-18 [2] = target: T2, IL-18 (Mus musculus, UniProt P70380); assay: Dissociation constant (Kd) used for dose selection, mouse; assay type: binding
T2 sequence (P70380 36-192): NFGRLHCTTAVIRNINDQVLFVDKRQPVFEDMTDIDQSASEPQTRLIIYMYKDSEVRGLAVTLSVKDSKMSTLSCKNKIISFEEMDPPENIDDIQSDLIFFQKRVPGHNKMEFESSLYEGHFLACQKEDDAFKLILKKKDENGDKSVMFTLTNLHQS
Method: as §1

[3] = Bioavailability of r-hIL-18BP by i.p. and s.c. route; assay type: in vivo, mouse
Method: as §1

G-CSF = G-CSF in BALF by ELISA, exacerbation/tobacco smoke mouse model; assay type: in vivo
Method: Mice received either vehicle (PBS) or IL-18BP. IL-18BP was given subcutaneously to 3 groups of animals respectively at 1, 3 or 10 mg/kg 2 h prior to the initial tobacco smoke exposure from Day 1 to Day 4. Mice received orally either vehicle or dexamethasone (10 mg/kg) 1 h prior to each twice daily exposure. Mice received by intranasal administration either the vehicle or Polyinosinic:polycytidylic acid (2 mg/kg) 2 h prior to the initial air or tobacco smoke exposure on Day 4 to induce lung inflammation exacerbation. Tobacco smoke exposure was performed during the morning and afternoon as follow: Day 1 for 15 min, Day 2 for 25 min, Day 3 for 30 min and Day 4 for 30 min.
Following the above treatments, animals were terminally anaesthetised on Day 5. After that, a blood sample was taken via the sub-clavian artery (plasma) and the animals were bronchoalveloar lavaged with 3×0.4 ml of PBS for further cellular and cytokine/mediator analysis. Bronchoalveolar lavage supernatants were stored at −80° C. for cytokine/mediator analysis. Cells recovered from the BALF were counted using the Sysmex cell counter.
G-CSF is well acknowledged as key cytokine stimulating the survival, proliferation, differentiation, and function of neutrophil precursors and mature neutrophils. […] The presence of G-CSF in the BALF was monitored with a commercially available ELISA kit.

[4] = in vivo
IL-18 [5] = target: T1, IL-18; conditions: cited from earlier work
IL-18 [6] = target: T1, IL-18; assay: New BIAcore setup: IL-18BP bound to chip, affinity to IL-18; assay type: binding; set-up: purchased; conditions: IL-18BP bound to BIAcore chip
Text: Following the above KD results obtain by titration, we tested the binding affinity of IL-18BP to IL-18 with a simpler BIAcore setup consisting of binding IL-18BP to the BIAcore chip and then testing its affinity to IL-18. The method setup is the contrary of Kim et al 2000 ^8, who bound IL-18 to the BIAcore chip with a monoclonal antibody and then tested the affinity of the complex antibody-IL-18 to IL-18BP.

B1: IL-18BP: soluble glycoprotein of 164 amino acids produced from a Chinese Hamster Ovary cell line; isoform a, SEQ ID NO 7 (protein, listed as Homo sapiens)
chain: TPVSQTTTAATASVRSTKDPCPSQPPVFPAAKQCPALEVTWPEVEVPLNGTLSLSCVACSRFPNFSILYWLGNGSFIEHLPGRLWEGSTSRERGSTGTQLCKALVLEQLTPALHSTNFSCVLVDPEQVVQRHVVLAQLWAGLRATLPPTQEALPSSHSSPQQQG
modifications: CHO glycosylation; MISC_FEATURE - Human interleukin-18 binding protein isoform a
Work on B1 yielded a Kd (IL-18 [1]) of 0.16 nM, a Kd (IL-18 [2]) of 0.4 nM and a bioavailability ([3]; i.p. route) of about 100%. The bioavailability ([3]; s.c. route) was 55%, the “G-CSF release in the lung airways (BALF)” value (G-CSF; IL-18BP s.c., day 5) was “mitigates G-CSF release in the lung airways” and the “G-CSF release in the lung airways (BALF)” value (G-CSF; three tested doses 1, 3 or 10 mg/kg s.c.) was “statistically relevant effect”. For the same molecule, the median half-life [4] was about 40 h, the Kd (IL-18 [5]; BIAcore measurements, read-out: KD reported in the literature (Kim et al 2000)) was 0.4 nM and the Kd (IL-18 [5]; IL-18-IL-18BP complex, stoichiometry 1:1, read-out: Dissociation constant KD as calculated by Kim et al 2000) was 0.4 nM. For the same molecule, the Ka (IL-18 [6]) was 5.3 ± 1.2 10^+5/MS and the Kd (IL-18 [6]) was 0.02 to 0.03 nM.

— patent US12679888B2, “IL-18 binding protein (IL-18BP) and antibodies for treating inflammatory diseases” (AB2 BIO SA, priority 2015, dated 2026)
